According to the supplement of paper PMC12764529:
± gives the half width of the 95% confidence interval.

Key:
[1] = folding stability dG unfold from chymotrypsin proteolysis; higher = more stable
Method in brief: (§1)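 Bayesian fitting of sequencing counts gave K50 for each design. Unfolding free energy followed by setting this against a sequence-predicted unfolded-state K50 and a shared folded-state K50, either per protease or with trypsin and chymotrypsin combined. The designs, under 80 residues and lacking cysteine, were digested in a PA-tagged cDNA display format at 11 threefold-diluted protease concentrations and without protease, and only those with AlphaFold2 dimer inter-PAE above 15 were kept.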

[2] = folding stability dG unfold (combined trypsin and chymotrypsin); higher = more stable
Method in brief: as §1

[3] = folding stability dG unfold from trypsin proteolysis; higher = more stable
Method in brief: as §1

Sequence | folding stability dG unfold [1] [kcal/mol] | folding stability dG unfold [2] [kcal/mol] | folding stability dG unfold [3] [kcal/mol]
SPIKLPIVFPNLPKEEAKEAVEALAKELEEKYGFKIEVEVEELRAPDGKLVAVVAIATIEKFGEEDKLLFSA [r9_21_TrMRF] | 1.12 ± 0.14 | 1.2 ± 0.18 | 1.3 ± 0.08
SAGGSAGGSAGPRYRLRIELRLERNEDGSLSLSAKIEIERIEPPPPPPRVVLYNGKLYLLSAGGSAGGSAGG [r17_418_TrROS_Hall] | 4.35 ± 0.21 | 4.28 ± 0.34 | 3.91 ± 0.41
SAGGSANPNGKPWVEVEVSFMIPIDDEDIADALGGPPKPGDWLMITVKIRVYPDGNVEIDINLHPMSAGGSA [r15_91_TrROS] | 3.88 ± 0.22 | 3.95 ± 0.19 | 3.96 ± 0.14
SAGGSAGGMVFENLSEEEAKIIAKNIAENFKKKYPNVKIKVEAEVYKLPNPKVIVVIKLEIEEESAGGSAGG [r6_787_TrMRF] | 3.54 ± 0.07 | 3.09 ± 0.15 | 2.55 ± 0.086
SAGGLPPGWKPIDIMVLVPPGEPLTEDQVEELAKEIARELQEKGVTIDVRVWPTDDWYFVSVDIQVPDSAGG [r13_442_TrROS] | 1.31 ± 0.13 | 1.73 ± 0.18 | 2.08 ± 0.11
SAGGSAGGSAMPIKYLFPKDKSLEDILDEIIKKTGKPKSEIKNIKLEEIDDEEGFYVAYVESAGGSAGGSAG [r3_26_TrMRF] | 1.13 ± 0.13 | 1.36 ± 0.22 | 1.36 ± 0.092
SAGGSLVEKVKAIFAEKGIPVNPITTTPTSFTAKTPTGPFTVELPGNSTVTVSPDGTATVTVPPGLSSAGGS [r8_297_JUSTAS] | 2.2 ± 0.066 | 1.99 ± 0.21 | 1.41 ± 0.16
SAGGSASMSNVTSYVTVYKKPGVDDLYYKVRILAPSEPKVIEIPESEIPKYEKEGIKIEKVSEELLSAGGSA [r15_783_JUSTAS] | 1.96 ± 0.32 | 1.28 ± 0.34 | 0.901 ± 0.36
SAGGSAGGKIIINGKEIEPGETITLPNGLKLEVVDGKIKLVVRDEETGEEKEITLSAEELKKLLSAGGSAGG [r6_940_TrROS_Hall] | 3.26 ± 0.086 | 3.09 ± 0.061 | 2.65 ± 0.12
SAGGSAGGMTPEEERRKKESPVPPVNKVTVKIPVPSSVSEEVAKEIAEKLEKESGAKKVEVILPSAGGSAGG [r6_517_JUSTAS] | 1.34 ± 0.098 | 1 ± 0.091 | 0.257 ± 0.042
SAGGSAGGSAGGLVPPDAVIPTETTAEEPVYVIDPVTGELTPIGPGVVRRKITRRVPRPSAGGSAGGSAGGS [r10_1115_JUSTAS] | 0.863 ± 0.056 | 0.514 ± 0.11 | -0.968 ± 0.22
SAGSPLYEVKSEEVLPGPGGEPMRVTVVELPGGEILTFVESPDGLLEIRYIPAETGKFEKTEKVPRDLLSAG [r5_750_JUSTAS] | 0.802 ± 0.087 | 0.618 ± 0.15 | 0.445 ± 0.06
SAMELRVESELFPDGRRRLVVLDPGDGAPVVTFIDLEPVDGGYRASITQIGPDPAVAERVARELGIPPESAG [r14_545_TrMRF] | 1.17 ± 0.047 | 0.786 ± 0.082 | -0.191 ± 0.21
SAGGSAGGSAGGSKLPEGAKITITKNEDGSYTLTVTFPNGEKVEITMSEDELKKLLEALSAGGSAGGSAGGS [r4_16_TrROS_Hall] | 3.64 ± 0.11 | 3.79 ± 0.14 | 3.84 ± 0.15
SAGGSKGKAPVKVRFLFLEDGKVVAEAEVEFEVEVPIPPVPPVFVPEEARKALENGDIEKALKLLGSAGGSA [r2_196_TrMRF] | 1.58 ± 0.035 | 1.36 ± 0.13 | 0.827 ± 0.036
SAGGSAGGSAGDLLKEALEEAKKAGIKTATITVEVDGKLYTLTVKLEPKPPPKEVKVEKKSAGGSAGGSAGG [r17_475_TrROS_Hall] | 0.814 ± 0.17 | 0.526 ± 0.38 | -0.977 ± 0.51
SIKLSNGETIEYEPSPNKTYTIKHPDGRVVKILKVEREKDKYTVEIQFDDGSTKTIEIPPDKPEIIEKELLS [r1_66_JUSTAS] | 0.951 ± 0.08 | 1.24 ± 0.12 | 1.37 ± 0.027
